The assay has as its target truncated Bid (tBid) of cleaved Bid (cBid) 190C labeled with Alexa Fluor 488 (murine) (UniProt P70444).

Usually Kd stands for the equilibrium constant for the complex coming apart. “p7 fragment of Bid (from cleaved Bid 190C) (domain or fragment)” returned a Kd of 40 nM.

(Values after publication PMC4611711.)
